Residues, ends and D or L forms follow the SMILES beside them. *: point of attachment. AMC = Cc1cc(=O)oc2cc(N*)ccc12
Tests used:
PeDPP7 (MER278904) = target: T1, PeDPP7 (MER278904) (Porphyromonas endodontalis, UniProt C3JAQ3); experiment: fluorescence of released aminomethylcoumarin, hydrolysis rate; type: biochemical; settings: 20 µM substrate, 50 mM sodium phosphate pH 7.0, 5 mM EDTA, 37°C
T1 construct: gene dpp7; 70-kDa single band; S46 family

[1] = test system: Cc1cc(=O)oc2cc(NC(=O)[C@H](Cc3ccc(O)cc3)NC(=O)[C@@H](N)CO)ccc12; experiment: purified protein; settings: 50 mM sodium phosphate pH 7.0, 5 mM EDTA, 0.1 M NaCl, 37°C
Source text: (§2) fluorescence of released aminomethylcoumarin, Michaelis-Menten fit on PeDPP5 (MER236725)

[2] = test system: Cc1cc(=O)oc2cc(NC(=O)[C@H](Cc3ccccc3)NC(=O)CN)ccc12; experiment: purified protein; settings: 50 mM sodium phosphate pH 7.0, 5 mM EDTA, 0.1 M NaCl, 37°C
Source text: as §2

[3] = test system: Cc1cc(=O)oc2cc(NC(=O)[C@H](C)NC(=O)[C@@H](N)CCCCN)ccc12; experiment: purified protein; settings: 50 mM sodium phosphate pH 7.0, 5 mM EDTA, 0.1 M NaCl, 37°C
Source text: as §2

[4] = test system: Cc1cc(=O)oc2cc(NC(=O)[C@H](Cc3ccc(O)cc3)NC(=O)[C@@H](N)CO)ccc12; experiment: fluorescence of released aminomethylcoumarin, Michaelis-Menten fit; type: biochemical, Porphyromonas gingivalis; settings: 50 mM sodium phosphate pH 7.0, 5 mM EDTA, 0.1 M NaCl, 37°C
Source text: (§1) fluorescence of released aminomethylcoumarin, Michaelis-Menten fit on PgDPP5

[5] = test system: Cc1cc(=O)oc2cc(NC(=O)[C@H](Cc3ccccc3)NC(=O)CN)ccc12; experiment: as above; type: biochemical, Porphyromonas gingivalis; settings: 50 mM sodium phosphate pH 7.0, 5 mM EDTA, 0.1 M NaCl, 37°C
Source text: as §1

[6] = test system: Cc1cc(=O)oc2cc(NC(=O)[C@H](C)NC(=O)[C@@H](N)CCCCN)ccc12; experiment: as above; type: biochemical, Porphyromonas gingivalis; settings: 50 mM sodium phosphate pH 7.0, 5 mM EDTA, 0.1 M NaCl, 37°C
Source text: as §1

T1 sequence (C3JAQ3 3-710): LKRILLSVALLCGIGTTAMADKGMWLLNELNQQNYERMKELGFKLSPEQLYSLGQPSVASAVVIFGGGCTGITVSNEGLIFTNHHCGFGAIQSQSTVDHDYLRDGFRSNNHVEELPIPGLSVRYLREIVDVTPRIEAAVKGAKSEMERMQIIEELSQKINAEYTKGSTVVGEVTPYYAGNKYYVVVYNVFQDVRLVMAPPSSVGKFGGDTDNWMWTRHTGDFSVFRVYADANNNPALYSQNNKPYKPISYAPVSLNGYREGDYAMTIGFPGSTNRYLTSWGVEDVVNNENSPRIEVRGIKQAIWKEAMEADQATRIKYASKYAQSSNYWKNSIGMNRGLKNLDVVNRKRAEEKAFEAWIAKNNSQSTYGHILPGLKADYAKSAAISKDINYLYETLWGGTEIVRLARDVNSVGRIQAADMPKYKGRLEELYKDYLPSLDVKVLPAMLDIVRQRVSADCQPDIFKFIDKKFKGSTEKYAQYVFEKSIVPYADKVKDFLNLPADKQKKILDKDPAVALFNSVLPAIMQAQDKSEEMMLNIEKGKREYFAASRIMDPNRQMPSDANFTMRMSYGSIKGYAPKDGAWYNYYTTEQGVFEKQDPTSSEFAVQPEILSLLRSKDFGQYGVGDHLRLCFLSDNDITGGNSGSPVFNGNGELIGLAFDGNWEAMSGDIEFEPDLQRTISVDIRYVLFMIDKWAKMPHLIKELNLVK

## Cc1cc(=O)oc2cc(NC(=O)[C@H](C)NC(=O)[C@@H](N)CCCCN)ccc12 [Lys-Ala-MCA] (H-Lys-Ala-{AMC})
PeDPP7 (MER278904)
  fluorescence of released aminomethylcoumarin, hydrolysis rate: slowly hydrolyzed Leu-Gln-, Lys-Ala-, Leu-Arg-, and Ala-Asn-MCA

## PeDPP5 (MER236725) (Porphyromonas endodontalis ATCC 35406)
[1]
  Km: 257 ± 9 µM
  kcat: 3470 ± 87 s⁻¹
  kcat/Km: 1.35e+07 M⁻¹ s⁻¹
[2]
  Km: 993 ± 176 µM
  kcat: 10400 ± 1640 s⁻¹
  kcat/Km: 1.05e+07 M⁻¹ s⁻¹
[3]
  Km: 110 ± 7 µM
  kcat: 21200 ± 932 s⁻¹
  kcat/Km: 1.94e+08 M⁻¹ s⁻¹

## PgDPP5 (Porphyromonas gingivalis ATCC 33277)
[4]
  Km: 296 ± 31 µM
  kcat: 1330 ± 100 s⁻¹
  kcat/Km: 4.49e+06 M⁻¹ s⁻¹
[5]
  Km: 396 ± 51 µM
  kcat: 5640 ± 403 s⁻¹
  kcat/Km: 1.3e+07 M⁻¹ s⁻¹
[6]
  Km: 185 ± 21 µM
  kcat: 1950 ± 165 s⁻¹
  kcat/Km: 1.05e+07 M⁻¹ s⁻¹
